The record followed here is publication PMC9172074, “A microfluidic paper analytical device using capture aptamers for the detection of PfLDH in blood matrices”.

For data set [1], the target named is T1, rPfLDH (recombinant Plasmodium falciparum lactate dehydrogenase) (Plasmodium falciparum, UniProt Q76NM3 1-316). As to the kind of experiment: paper capture, Malstat enzyme activity colorimetry; Zone 3, apparent Kd; PBS pH 7.4 (10 mM Na2HPO4, 1.8 mM KH2PO4 [printed KH2HPO4], 2.7 mM KCl, 137 mM NaCl), room temperature, 30 min; pL1: 20 mM Tris, 50 mM NaCl, 5 mM KCl, 5 mM MgCl2, 0.01% Tween 20, pH 8.0. As to conditions: protein: recombinant; chain copies: 4; label: 5' biotin.

For data set [2], the target named is T1, rPfLDH (recombinant Plasmodium …). As to the kind of experiment: paper capture, Malstat enzyme activity colorimetry; Zone 1, apparent Kd (fit 23.643 ± 10.806); PBS pH 7.4 (10 mM Na2HPO4, 1.8 mM KH2PO4 [printed KH2HPO4], 2.7 mM KCl, 137 mM NaCl), room temperature, 30 min; pL1: 20 mM Tris, 50 mM NaCl, 5 mM KCl, 5 mM MgCl2, 0.01% Tween 20, pH 8.0. The settings on record: protein: recombinant; chain copies: 4; label: 5' biotin.

B1: rLDH7 (ssDNA)
DNA: GCCTGTTGTGAGCCTCCTAACCCAGAATAGGGACTGCTCGGGATTGCGGATGAGTCTGGGTGGGACATGGCATGCTTATTCTTGTCTCCC
For B1, the Kd came to 11.4 ± 5 nM in data set [1] and 24 ± 11 nM in data set [2].
